In article PMC9482650, “Quantitative fragmentomics allow affinity mapping of interactomes” (Nature Communications, 2022):

T1: DVL3, Q92997
T1 sequence (Q92997 244-331, limits assumed, looked up): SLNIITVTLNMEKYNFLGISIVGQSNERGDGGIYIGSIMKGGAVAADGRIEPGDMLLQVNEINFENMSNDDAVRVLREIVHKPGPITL

T2: SIPA1L2, Q9P2F8
T2 sequence (Q9P2F8 945-1036, limits assumed, looked up): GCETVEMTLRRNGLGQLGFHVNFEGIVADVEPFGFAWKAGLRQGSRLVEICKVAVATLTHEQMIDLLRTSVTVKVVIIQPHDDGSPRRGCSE

T3: APBA3_1, O96018
T3 sequence (O96018 389-490, limits assumed, looked up): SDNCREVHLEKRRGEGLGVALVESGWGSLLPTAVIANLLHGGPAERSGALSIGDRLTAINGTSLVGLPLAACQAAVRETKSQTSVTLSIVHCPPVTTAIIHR

T4: APBA2_1, Q99767
T4 sequence (Q99767 563-664, limits assumed, looked up): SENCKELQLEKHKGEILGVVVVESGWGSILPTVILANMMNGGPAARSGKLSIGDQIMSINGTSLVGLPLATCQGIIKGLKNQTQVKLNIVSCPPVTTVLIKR

T5: PARD3B_1, Q8TEW8
T5 sequence (Q8TEW8 196-299, limits assumed, looked up): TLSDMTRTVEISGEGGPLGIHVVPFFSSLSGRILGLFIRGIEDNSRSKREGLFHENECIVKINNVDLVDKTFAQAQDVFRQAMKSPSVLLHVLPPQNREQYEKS

T6: PDZD7_3, Q9H5P4
T6 sequence (Q9H5P4 857-944, limits assumed, looked up): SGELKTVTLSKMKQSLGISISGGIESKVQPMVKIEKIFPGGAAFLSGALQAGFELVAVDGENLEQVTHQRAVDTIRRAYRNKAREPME

T7: DFNB31_2, Q9P202
T7 sequence (Q9P202 274-371, limits assumed, looked up): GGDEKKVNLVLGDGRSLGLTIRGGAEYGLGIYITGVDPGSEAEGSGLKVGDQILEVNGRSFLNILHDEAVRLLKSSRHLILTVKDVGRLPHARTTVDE

T8: SNTA1, Q13424
T8 sequence (Q13424 82-180, limits assumed, looked up): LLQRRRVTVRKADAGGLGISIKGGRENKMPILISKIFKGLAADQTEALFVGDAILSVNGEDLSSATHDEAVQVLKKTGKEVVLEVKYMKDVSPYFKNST

T9: HTRA3, P83110
T9 sequence (P83110 354-453, limits assumed, looked up): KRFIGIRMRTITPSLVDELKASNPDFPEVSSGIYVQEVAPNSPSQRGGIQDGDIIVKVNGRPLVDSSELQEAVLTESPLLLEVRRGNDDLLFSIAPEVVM

T10: NHERF3_3, Q5T2W1
T10 sequence (Q5T2W1 238-333, limits assumed, looked up): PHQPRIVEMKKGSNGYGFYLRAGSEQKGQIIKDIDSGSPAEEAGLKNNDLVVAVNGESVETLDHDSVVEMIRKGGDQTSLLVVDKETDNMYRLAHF

T11: SNTG1, Q9NSN8
T11 sequence (Q9NSN8 52-150, limits assumed, looked up): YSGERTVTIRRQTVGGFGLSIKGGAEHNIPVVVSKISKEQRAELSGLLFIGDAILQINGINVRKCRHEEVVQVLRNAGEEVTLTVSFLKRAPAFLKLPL

T12: TJP3_3, O95049
T12 sequence (O95049 375-456, limits assumed, looked up): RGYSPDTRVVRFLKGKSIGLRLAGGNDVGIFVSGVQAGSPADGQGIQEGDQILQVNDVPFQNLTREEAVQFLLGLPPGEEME


biological target: T1, DVL3, Q92997; test: holdup assay; design: key: below the threshold = too weak to quantify, mostly under pKd 3.1 to 4; details: plain residues with an end cap or a label only (N-terminal biotin on a linker: ado-ado)

| Binder | pKd |
| --- | --- |
| KKAPTNEFYA [SDC4, P31431] | below the threshold |
| QGPVETESVV [SLC45A4, Q5BKX6] | below the threshold |

biological target: T2, SIPA1L2, Q9P2F8; test: holdup assay; design: key: below the threshold = too weak to quantify, mostly under pKd 3.1 to 4; details: plain residues with an end cap or a label only (N-terminal biotin on a linker: ado-ado)

| Binder | pKd |
| --- | --- |
| KKAPTNEFYA [SDC4, P31431] | below the threshold |
| QGPVETESVV [SLC45A4, Q5BKX6] | below the threshold |

biological target: GRIP2_3, Q9C0E4; test: holdup assay; design: key: below the threshold = too weak to quantify, mostly under pKd 3.1 to 4; details: plain residues with an end cap or a label only (N-terminal biotin on a linker: ado-ado)
Sequence (Q9C0E4 238-339): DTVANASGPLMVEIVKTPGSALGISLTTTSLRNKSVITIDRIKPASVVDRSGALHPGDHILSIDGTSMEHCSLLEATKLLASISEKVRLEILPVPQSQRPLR

| Binder | pKd |
| --- | --- |
| KKAPTNEFYA [SDC4, P31431] | below the threshold |
| QGPVETESVV [SLC45A4, Q5BKX6] | below the threshold |

biological target: T3, APBA3_1, O96018; test: holdup assay; design: key: below the threshold = too weak to quantify, mostly under pKd 3.1 to 4; details: plain residues with an end cap or a label only (N-terminal biotin on a linker: ado-ado)

| Binder | pKd |
| --- | --- |
| KKAPTNEFYA [SDC4, P31431] | below the threshold |
| QGPVETESVV [SLC45A4, Q5BKX6] | below the threshold |

biological target: SCRIB_3, Q14160; test: holdup assay; design: key: below the threshold = too weak to quantify, mostly under pKd 3.1 to 4; details: plain residues with an end cap or a label only (N-terminal biotin on a linker: ado-ado)
Sequence (Q14160 999-1103): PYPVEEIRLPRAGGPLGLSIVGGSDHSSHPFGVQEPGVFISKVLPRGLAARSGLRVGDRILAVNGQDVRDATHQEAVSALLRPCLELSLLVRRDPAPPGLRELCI

| Binder | pKd |
| --- | --- |
| KKAPTNEFYA [SDC4, P31431] | below the threshold |
| QGPVETESVV [SLC45A4, Q5BKX6] | 3.9 |

biological target: T4, APBA2_1, Q99767; test: holdup assay; design: key: below the threshold = too weak to quantify, mostly under pKd 3.1 to 4; details: plain residues with an end cap or a label only (N-terminal biotin on a linker: ado-ado)

| Binder | pKd |
| --- | --- |
| KKAPTNEFYA [SDC4, P31431] | below the threshold |
| QGPVETESVV [SLC45A4, Q5BKX6] | below the threshold |

biological target: SCRIB_1, Q14160; test: holdup assay; design: key: below the threshold = too weak to quantify, mostly under pKd 3.1 to 4; details: plain residues with an end cap or a label only (N-terminal biotin on a linker: ado-ado)
Sequence (Q14160 718-814): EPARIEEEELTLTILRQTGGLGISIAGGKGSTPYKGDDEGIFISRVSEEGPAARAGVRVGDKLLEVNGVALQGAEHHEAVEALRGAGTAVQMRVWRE

| Binder | pKd |
| --- | --- |
| KKAPTNEFYA [SDC4, P31431] | below the threshold |
| QGPVETESVV [SLC45A4, Q5BKX6] | 3.72 |

biological target: NHERF4_2, Q86UT5; test: holdup assay; design: key: below the threshold = too weak to quantify, mostly under pKd 3.1 to 4; details: plain residues with an end cap or a label only (N-terminal biotin on a linker: ado-ado)
Sequence (Q86UT5 220-308): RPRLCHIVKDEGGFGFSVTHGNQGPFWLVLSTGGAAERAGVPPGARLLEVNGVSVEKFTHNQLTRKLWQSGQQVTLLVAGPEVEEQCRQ

| Binder | pKd |
| --- | --- |
| KKAPTNEFYA [SDC4, P31431] | below the threshold |
| QGPVETESVV [SLC45A4, Q5BKX6] | below the threshold |

biological target: CASK, O14936; test: holdup assay; design: key: below the threshold = too weak to quantify, mostly under pKd 3.1 to 4; details: plain residues with an end cap or a label only (N-terminal biotin on a linker: ado-ado)
Sequence (O14936 487-570): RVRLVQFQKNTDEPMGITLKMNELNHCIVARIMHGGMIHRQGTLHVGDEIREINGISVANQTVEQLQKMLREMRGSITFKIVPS

| Binder | pKd |
| --- | --- |
| KKAPTNEFYA [SDC4, P31431] | below the threshold |
| QGPVETESVV [SLC45A4, Q5BKX6] | below the threshold |

biological target: T5, PARD3B_1, Q8TEW8; test: holdup assay; design: key: below the threshold = too weak to quantify, mostly under pKd 3.1 to 4; details: plain residues with an end cap or a label only (N-terminal biotin on a linker: ado-ado)

| Binder | pKd |
| --- | --- |
| KKAPTNEFYA [SDC4, P31431] | 4.52 |
| QGPVETESVV [SLC45A4, Q5BKX6] | below the threshold |

biological target: DLG2_2, Q15700; test: holdup assay; design: key: below the threshold = too weak to quantify, mostly under pKd 3.1 to 4; details: plain residues with an end cap or a label only (N-terminal biotin on a linker: ado-ado)
Sequence (Q15700 189-283): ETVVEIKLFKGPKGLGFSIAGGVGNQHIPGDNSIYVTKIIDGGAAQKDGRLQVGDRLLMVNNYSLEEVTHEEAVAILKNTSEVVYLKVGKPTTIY

| Binder | pKd |
| --- | --- |
| KKAPTNEFYA [SDC4, P31431] | below the threshold |
| QGPVETESVV [SLC45A4, Q5BKX6] | 4.45 |

biological target: T6, PDZD7_3, Q9H5P4; test: holdup assay; design: key: below the threshold = too weak to quantify, mostly under pKd 3.1 to 4; details: plain residues with an end cap or a label only (N-terminal biotin on a linker: ado-ado)

| Binder | pKd |
| --- | --- |
| KKAPTNEFYA [SDC4, P31431] | below the threshold |
| QGPVETESVV [SLC45A4, Q5BKX6] | 4.56 |

biological target: GRIP2_7, Q9C0E4; test: holdup assay; design: key: below the threshold = too weak to quantify, mostly under pKd 3.1 to 4; details: plain residues with an end cap or a label only (N-terminal biotin on a linker: ado-ado)
Sequence (Q9C0E4 934-1023): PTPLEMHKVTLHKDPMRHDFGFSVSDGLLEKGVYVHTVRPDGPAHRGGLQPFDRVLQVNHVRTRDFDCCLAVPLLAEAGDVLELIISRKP

| Binder | pKd |
| --- | --- |
| KKAPTNEFYA [SDC4, P31431] | below the threshold |
| QGPVETESVV [SLC45A4, Q5BKX6] | below the threshold |

biological target: MAGI1_2, Q96QZ7; test: holdup assay; design: key: below the threshold = too weak to quantify, mostly under pKd 3.1 to 4; details: plain residues with an end cap or a label only (N-terminal biotin on a linker: ado-ado)
Sequence (Q96QZ7 456-580): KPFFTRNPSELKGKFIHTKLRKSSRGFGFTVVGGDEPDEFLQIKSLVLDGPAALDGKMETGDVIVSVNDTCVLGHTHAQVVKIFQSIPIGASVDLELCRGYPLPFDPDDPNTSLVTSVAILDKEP

| Binder | pKd |
| --- | --- |
| KKAPTNEFYA [SDC4, P31431] | below the threshold |
| QGPVETESVV [SLC45A4, Q5BKX6] | below the threshold |

biological target: PARD3_3, Q8TEW0; test: holdup assay; design: key: below the threshold = too weak to quantify, mostly under pKd 3.1 to 4; details: plain residues with an end cap or a label only (N-terminal biotin on a linker: ado-ado)
Sequence (Q8TEW0 582-685): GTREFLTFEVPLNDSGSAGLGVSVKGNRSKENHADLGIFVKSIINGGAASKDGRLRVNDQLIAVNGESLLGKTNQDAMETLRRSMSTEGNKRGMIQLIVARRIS

| Binder | pKd |
| --- | --- |
| KKAPTNEFYA [SDC4, P31431] | below the threshold |
| QGPVETESVV [SLC45A4, Q5BKX6] | 3.81 |

biological target: T7, DFNB31_2, Q9P202; test: holdup assay; design: key: below the threshold = too weak to quantify, mostly under pKd 3.1 to 4; details: plain residues with an end cap or a label only (N-terminal biotin on a linker: ado-ado)

| Binder | pKd |
| --- | --- |
| KKAPTNEFYA [SDC4, P31431] | below the threshold |
| QGPVETESVV [SLC45A4, Q5BKX6] | below the threshold |

biological target: LIMK2, P53671; test: holdup assay; design: key: below the threshold = too weak to quantify, mostly under pKd 3.1 to 4; details: plain residues with an end cap or a label only (N-terminal biotin on a linker: ado-ado)
Sequence (P53671 143-248): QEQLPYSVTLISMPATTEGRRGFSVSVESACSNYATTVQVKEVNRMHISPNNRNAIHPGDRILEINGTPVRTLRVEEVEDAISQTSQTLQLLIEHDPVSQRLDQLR

| Binder | pKd |
| --- | --- |
| KKAPTNEFYA [SDC4, P31431] | below the threshold |
| QGPVETESVV [SLC45A4, Q5BKX6] | below the threshold |

biological target: ARHGEF12, Q9NZN5-2; test: holdup assay; design: key: below the threshold = too weak to quantify, mostly under pKd 3.1 to 4; details: plain residues with an end cap or a label only (N-terminal biotin on a linker: ado-ado)
Sequence (Q9NZN5 other isoform, or with tags, fused parts or gaps): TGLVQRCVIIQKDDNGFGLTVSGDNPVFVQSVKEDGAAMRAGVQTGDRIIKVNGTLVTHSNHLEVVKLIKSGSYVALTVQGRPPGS

| Binder | pKd |
| --- | --- |
| KKAPTNEFYA [SDC4, P31431] | below the threshold |
| QGPVETESVV [SLC45A4, Q5BKX6] | below the threshold |

biological target: GORASP1, Q9BQQ3; test: holdup assay; design: key: below the threshold = too weak to quantify, mostly under pKd 3.1 to 4; details: plain residues with an end cap or a label only (N-terminal biotin on a linker: ado-ado)
Sequence (Q9BQQ3 1-208): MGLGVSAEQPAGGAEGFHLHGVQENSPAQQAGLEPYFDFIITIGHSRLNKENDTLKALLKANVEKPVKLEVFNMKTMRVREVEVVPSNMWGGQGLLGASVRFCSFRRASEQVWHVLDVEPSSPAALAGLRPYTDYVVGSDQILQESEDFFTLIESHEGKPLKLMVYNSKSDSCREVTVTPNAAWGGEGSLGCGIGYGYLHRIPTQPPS

| Binder | pKd |
| --- | --- |
| KKAPTNEFYA [SDC4, P31431] | below the threshold |
| QGPVETESVV [SLC45A4, Q5BKX6] | 3.65 |

biological target: T8, SNTA1, Q13424; test: holdup assay; design: key: below the threshold = too weak to quantify, mostly under pKd 3.1 to 4; details: plain residues with an end cap or a label only (N-terminal biotin on a linker: ado-ado)

| Binder | pKd |
| --- | --- |
| KKAPTNEFYA [SDC4, P31431] | below the threshold |
| QGPVETESVV [SLC45A4, Q5BKX6] | 4.93 |

biological target: T9, HTRA3, P83110; test: holdup assay; design: key: below the threshold = too weak to quantify, mostly under pKd 3.1 to 4; details: plain residues with an end cap or a label only (N-terminal biotin on a linker: ado-ado)

| Binder | pKd |
| --- | --- |
| KKAPTNEFYA [SDC4, P31431] | 4.38 |
| QGPVETESVV [SLC45A4, Q5BKX6] | below the threshold |

biological target: T10, NHERF3_3, Q5T2W1; test: holdup assay; design: key: below the threshold = too weak to quantify, mostly under pKd 3.1 to 4; details: plain residues with an end cap or a label only (N-terminal biotin on a linker: ado-ado)

| Binder | pKd |
| --- | --- |
| KKAPTNEFYA [SDC4, P31431] | below the threshold |
| QGPVETESVV [SLC45A4, Q5BKX6] | below the threshold |

biological target: T11, SNTG1, Q9NSN8; test: holdup assay; design: key: below the threshold = too weak to quantify, mostly under pKd 3.1 to 4; details: plain residues with an end cap or a label only (N-terminal biotin on a linker: ado-ado)

| Binder | pKd |
| --- | --- |
| KKAPTNEFYA [SDC4, P31431] | below the threshold |
| QGPVETESVV [SLC45A4, Q5BKX6] | 4.75 |

biological target: T12, TJP3_3, O95049; test: holdup assay; design: key: below the threshold = too weak to quantify, mostly under pKd 3.1 to 4; details: plain residues with an end cap or a label only (N-terminal biotin on a linker: ado-ado)

| Binder | pKd |
| --- | --- |
| KKAPTNEFYA [SDC4, P31431] | below the threshold |
| QGPVETESVV [SLC45A4, Q5BKX6] | 3.59 |

biological target: TJP2_1, Q9UDY2; test: holdup assay; design: key: below the threshold = too weak to quantify, mostly under pKd 3.1 to 4; details: plain residues with an end cap or a label only (N-terminal biotin on a linker: ado-ado)
Sequence (Q9UDY2 24-128): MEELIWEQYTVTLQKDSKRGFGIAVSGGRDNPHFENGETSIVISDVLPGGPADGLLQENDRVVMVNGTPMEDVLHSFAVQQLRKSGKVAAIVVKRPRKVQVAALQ

| Binder | pKd |
| --- | --- |
| KKAPTNEFYA [SDC4, P31431] | below the threshold |
| QGPVETESVV [SLC45A4, Q5BKX6] | below the threshold |

biological target: TJP1_2, Q07157; test: holdup assay; design: key: below the threshold = too weak to quantify, mostly under pKd 3.1 to 4; details: plain residues with an end cap or a label only (N-terminal biotin on a linker: ado-ado)
Sequence (Q07157 181-274): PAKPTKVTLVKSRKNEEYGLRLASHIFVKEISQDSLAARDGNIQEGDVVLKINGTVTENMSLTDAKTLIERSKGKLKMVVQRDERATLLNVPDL

| Binder | pKd |
| --- | --- |
| KKAPTNEFYA [SDC4, P31431] | below the threshold |
| QGPVETESVV [SLC45A4, Q5BKX6] | 3.54 |
